From patent publication US20260347491

Biological target: human CD32b (FcgRIIb) (human) (UniProt P31994)
Test: FACS

human CD32b (FcgRIIb) (human), sequence (P31994 46-217): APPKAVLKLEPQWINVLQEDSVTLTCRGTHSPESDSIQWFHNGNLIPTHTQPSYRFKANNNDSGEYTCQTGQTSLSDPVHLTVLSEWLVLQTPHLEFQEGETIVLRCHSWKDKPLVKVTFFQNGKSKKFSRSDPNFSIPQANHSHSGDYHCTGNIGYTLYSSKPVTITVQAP

EC50 [nM] | Substance
1.35 | Pertuzumab (full)
14.1 | Trastuzumab (full)
